# Data published in patent publication US20230235013A1 (MABSOLVE, published 2023).
# Residue numbers refer to the chain shown, from its start. Names may count otherwise.
# B1: anti-CD20 human IgG1 L234E/L235G/G236R (antibody)
# heavy: QVQLQQPGAELVKPGASVKMSCKASGYTFTSYNMHWVKQTPGRGLEWIGAIYPGNGDTSYNQKFKGKATLTADKSSSTAYMQLSSLTSEDSAVYYCARSTYYGGDWYFNVWGAGTTVTVSSASTKGPSVFPLAPSSKSTSGGTAALGCLVKDYFPEPVTVSWNSGALTSGVHTFPAVLQSSGLYSLSSVVTVPSSSLGTQTYICNVNHKPSNTKVDKKVEPKSCDKTHTCPPCPAPEEGRGPSVFLFPPKPKDTLMISRTPEVTCVVVDVSHEDPEVKFNWYVDGVEVHNAKTKPREEQYNSTYRVVSVLTVLHQDWLNGKEYKCKVSNKALPAPIEKTISKAKGQPREPQVYTLPPSRDELTKNQVSLTCLVKGFYPSDIAVEWESNGQPENNYKTTPPVLDSDGSFFLYSKLTVDKSRWQQGNVFSCSVMHEALHNHYTQKSLSLSPGK
# light: QIVLSQSPAILSASPGEKVTMTCRASSSVSYIHWFQQKPGSSPKPWIYATSNLASGVPVRFSGSGSGTSYSLTISRVEAEDAATYYCQQWTSNPPTFGGGTKLEIKRTVAAPSVFIFPPSDEQLKSGTASVVCLLNNFYPREAKVQWKVDNALQSGNSQESVTEQDSKDSTYSLSSTLTLSKADYEKHKVYACEVTHQGLSSPVTKSFNRGEC
# notes: also called 1-35; copies: 2 + 2
# B2: anti-CD20 human IgG1 L234G/L235I/G236R (antibody)
# heavy: B1 heavy with E238G, G239I
# light: B1 light
# notes: also called 1-52; copies: 2 + 2
# B3: anti-CD20 human IgG1 L234G/L235M/G236R (antibody)
# heavy: B1 heavy with E238G, G239M
# light: B1 light
# notes: also called 1-55; copies: 2 + 2
# B4: anti-CD20 human IgG1 L234E/L235T/G236R (antibody)
# heavy: B1 heavy with G239T
# light: B1 light
# notes: also called 1-45; copies: 2 + 2
# B5: anti-CD20 human IgG1 L234H/L235E/G236R (antibody)
# heavy: B1 heavy with E238H, G239E
# light: B1 light
# notes: also called 1-64; copies: 2 + 2
# B6: anti-CD20 human IgG1 L234G/L235R/G236R (antibody)
# heavy: B1 heavy with E238G, G239R
# light: B1 light
# notes: also called 1-58; copies: 2 + 2
# B7: anti-CD20 human IgG1 L234G/G236R (antibody)
# heavy: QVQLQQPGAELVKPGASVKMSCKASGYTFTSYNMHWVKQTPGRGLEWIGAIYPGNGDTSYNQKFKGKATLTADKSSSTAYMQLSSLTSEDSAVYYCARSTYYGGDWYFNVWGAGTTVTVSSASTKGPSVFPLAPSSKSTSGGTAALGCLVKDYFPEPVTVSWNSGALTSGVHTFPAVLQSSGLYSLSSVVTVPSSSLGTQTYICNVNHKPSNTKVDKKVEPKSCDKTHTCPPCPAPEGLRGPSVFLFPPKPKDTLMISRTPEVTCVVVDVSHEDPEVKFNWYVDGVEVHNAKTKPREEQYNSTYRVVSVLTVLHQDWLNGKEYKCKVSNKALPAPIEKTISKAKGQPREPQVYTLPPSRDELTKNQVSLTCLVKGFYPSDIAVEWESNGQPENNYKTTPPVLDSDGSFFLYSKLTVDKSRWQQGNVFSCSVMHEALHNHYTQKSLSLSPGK
# light: B1 light
# notes: also called 1-54; 2-85; copies: 2 + 2
# B8: anti-CD20 human IgG1 L234E/L235Q/G236R (antibody)
# heavy: B1 heavy with G239Q
# light: B1 light
# notes: also called 1-42; copies: 2 + 2
# B9: anti-CD20 human IgG1 L234H/L235D/G236R (antibody)
# heavy: B1 heavy with E238H, G239D
# light: B1 light
# notes: also called 1-63; copies: 2 + 2
# B10: anti-CD20 human IgG1 L234G/L235T/G236R (antibody)
# heavy: B1 heavy with E238G, G239T
# light: B1 light
# notes: also called 1-60; copies: 2 + 2
# B11: anti-CD20 human IgG1 L234H/L235A/G236R (antibody)
# heavy: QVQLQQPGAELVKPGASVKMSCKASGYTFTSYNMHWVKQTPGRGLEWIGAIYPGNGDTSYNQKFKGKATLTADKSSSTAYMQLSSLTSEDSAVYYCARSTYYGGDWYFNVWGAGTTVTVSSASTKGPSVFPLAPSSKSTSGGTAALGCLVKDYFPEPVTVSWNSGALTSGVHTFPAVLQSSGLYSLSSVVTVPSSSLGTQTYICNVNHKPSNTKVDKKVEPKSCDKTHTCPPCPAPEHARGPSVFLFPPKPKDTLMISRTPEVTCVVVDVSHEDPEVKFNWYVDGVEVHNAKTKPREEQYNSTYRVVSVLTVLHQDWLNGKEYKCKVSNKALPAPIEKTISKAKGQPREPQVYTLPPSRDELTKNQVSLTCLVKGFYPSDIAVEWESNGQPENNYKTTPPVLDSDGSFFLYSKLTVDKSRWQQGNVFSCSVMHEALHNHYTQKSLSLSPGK
# light: B1 light
# notes: also called 1-62; copies: 2 + 2
# B12: anti-CD20 human IgG1 L234G/L235Q/G236R (antibody)
# heavy: B1 heavy with E238G, G239Q
# light: B1 light
# notes: also called 1-57; 2-18; copies: 2 + 2
# B13: anti-CD20 human IgG1 L234G/L235N/G236R (antibody)
# heavy: B1 heavy with E238G, G239N
# light: B1 light
# notes: also called 1-56; copies: 2 + 2
# B14: anti-CD20 human IgG1 L234E/L235H/G236R (antibody)
# heavy: B1 heavy with G239H
# light: B1 light
# notes: also called 1-36; 2-13; copies: 2 + 2
# B15: anti-CD20 human IgG1 L234H/L235G/G236R (antibody)
# heavy: B1 heavy with E238H
# light: B1 light
# notes: also called 1-65; copies: 2 + 2
# B16: anti-CD20 human IgG1 L234G/L235A/G236R (antibody)
# heavy: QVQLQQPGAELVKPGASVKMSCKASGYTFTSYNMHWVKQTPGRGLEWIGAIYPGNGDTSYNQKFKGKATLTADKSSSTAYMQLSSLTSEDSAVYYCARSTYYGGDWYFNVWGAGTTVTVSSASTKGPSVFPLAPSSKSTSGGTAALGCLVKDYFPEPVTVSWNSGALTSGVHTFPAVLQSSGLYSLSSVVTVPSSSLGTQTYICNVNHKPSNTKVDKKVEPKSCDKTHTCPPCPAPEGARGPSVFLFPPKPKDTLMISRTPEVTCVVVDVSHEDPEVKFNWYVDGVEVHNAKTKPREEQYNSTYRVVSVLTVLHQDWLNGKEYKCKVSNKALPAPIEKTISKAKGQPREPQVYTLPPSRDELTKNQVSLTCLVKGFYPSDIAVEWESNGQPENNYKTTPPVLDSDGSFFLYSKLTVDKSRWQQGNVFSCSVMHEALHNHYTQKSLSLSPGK
# light: B1 light
# notes: also called 1-47; copies: 2 + 2
# B17: anti-CD20 human IgG1 L234G/L235K/G236R (antibody)
# heavy: B1 heavy with E238G, G239K
# light: B1 light
# notes: also called 1-53; copies: 2 + 2
# B18: anti-CD20 human IgG1 L234E/L235S/G236R (antibody)
# heavy: B1 heavy with G239S
# light: B1 light
# notes: also called 1-44; copies: 2 + 2
# B19: anti-CD20 human IgG1 L234G/L235E/G236R (antibody)
# heavy: B1 heavy with E238G, G239E
# light: B1 light
# notes: also called 1-49; copies: 2 + 2
# B20: anti-CD20 human IgG1 L234E/L235K/G236R (antibody)
# heavy: B1 heavy with G239K
# light: B1 light
# notes: also called 1-38; copies: 2 + 2
# B21: anti-CD20 human IgG1 L234G/L235D/G236R (antibody)
# heavy: B1 heavy with E238G, G239D
# light: B1 light
# notes: also called 1-48; copies: 2 + 2
# B22: anti-CD20 human IgG1 L234E/L235V/G236R (antibody)
# heavy: B1 heavy with G239V
# light: B1 light
# notes: also called 1-46; 2-16; copies: 2 + 2
# B23: anti-CD20 human IgG1 L234E/L235R/G236R (antibody)
# heavy: B1 heavy with G239R
# light: B1 light
# notes: also called 1-43; copies: 2 + 2
# B24: anti-CD20 human IgG1 L234G/L235G/G236R (antibody)
# heavy: B1 heavy with E238G
# light: B1 light
# notes: also called 1-50; copies: 2 + 2
# B25: anti-CD20 human IgG1 L234G/L235H/G236R (antibody)
# heavy: B1 heavy with E238G, G239H
# light: B1 light
# notes: also called 1-51; 2-17; copies: 2 + 2
# Target: T1, Histidine-tagged recombinant human FcγRI (CD64) (human, UniProt P12314 16-288)
# T1 construct: bought; also called Sino Biological Cat. No. 12056-H08H
# Test: SPR, culture supernatant, captured His-FcγRI;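 also: biacore T200 SPR at 25 °C, anti-His capture, supernatants of HEK293 cells expressing IgG1 Fc variants injected 1 min, reference-subtracted response read 55 s after injection start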
row,Mean binding response,Binder
1,71.2 RU,B1
2,29.2 RU,B2
3,23.2 RU,B3
4,29.6 RU,B4
5,22.8 RU,B5
6,29.3 RU,B6
7,28.5 RU,B7
8,33.7 RU,B8
9,38.5 RU,B9
10,26.5 RU,B10
11,29.4 RU,B11
12,13.6 RU,B12
13,26.8 RU,B13
14,21.4 RU,B14
15,31.6 RU,B15
16,23 RU,B16
17,27.4 RU,B17
18,39.2 RU,B18
19,31.8 RU,B19
20,34.1 RU,B20
21,23.6 RU,B21
22,18.4 RU,B22
23,26.7 RU,B23
24,29.5 RU,B24
25,19 RU,B25
